The values below come from patent US20230365662A1.

“And” between values parts separate entries of the source, which are not always exact repeats. Equal values may be shown once.

B1: KB001 mouse Fab VL S31F (Fab, V domains shown)
VH: EVQLKQSGPGLVAPSQSLSITCTVSGFSLSIYSVHWVRQPPGKGLEWLGMIWGGGSSDYNSALKSRLSISKDNSKSQVFLKMNSLQTDDTAMYYCARNGNFYAMDYWGQGTSVTVSS
VL: QIVLTQSPAIMSASLGERVTMTCTASSSVSFSFLHWYQQKPGSSPQLWIYSTSNLASGVPARFSGSGSGTSYSLTISSMEAEDAATYYCHQYHHSPYIYTFGGGTKLEIK
B2: KB001 mouse Fab VL S53H (Fab, V domains shown)
VH: EVQLKQSGPGLVAPSQSLSITCTVSGFSLSIYSVHWVRQPPGKGLEWLGMIWGGGSSDYNSALKSRLSISKDNSKSQVFLKMNSLQTDDTAMYYCARNGNFYAMDYWGQGTSVTVSS
VL: QIVLTQSPAIMSASLGERVTMTCTASSSVSSSFLHWYQQKPGSSPQLWIYSTHNLASGVPARFSGSGSGTSYSLTISSMEAEDAATYYCHQYHHSPYIYTFGGGTKLEIK
B3: KB001 mouse Fab VL S51G (Fab, V domains shown)
VH: EVQLKQSGPGLVAPSQSLSITCTVSGFSLSIYSVHWVRQPPGKGLEWLGMIWGGGSSDYNSALKSRLSISKDNSKSQVFLKMNSLQTDDTAMYYCARNGNFYAMDYWGQGTSVTVSS
VL: QIVLTQSPAIMSASLGERVTMTCTASSSVSSSFLHWYQQKPGSSPQLWIYGTSNLASGVPARFSGSGSGTSYSLTISSMEAEDAATYYCHQYHHSPYIYTFGGGTKLEIK
B4: KB001 mouse Fab VL S53N (Fab, V domains shown)
VH: EVQLKQSGPGLVAPSQSLSITCTVSGFSLSIYSVHWVRQPPGKGLEWLGMIWGGGSSDYNSALKSRLSISKDNSKSQVFLKMNSLQTDDTAMYYCARNGNFYAMDYWGQGTSVTVSS
VL: QIVLTQSPAIMSASLGERVTMTCTASSSVSSSFLHWYQQKPGSSPQLWIYSTNNLASGVPARFSGSGSGTSYSLTISSMEAEDAATYYCHQYHHSPYIYTFGGGTKLEIK
B5: KB001 mouse Fab VL T52S (Fab, V domains shown)
VH: EVQLKQSGPGLVAPSQSLSITCTVSGFSLSIYSVHWVRQPPGKGLEWLGMIWGGGSSDYNSALKSRLSISKDNSKSQVFLKMNSLQTDDTAMYYCARNGNFYAMDYWGQGTSVTVSS
VL: QIVLTQSPAIMSASLGERVTMTCTASSSVSSSFLHWYQQKPGSSPQLWIYSSSNLASGVPARFSGSGSGTSYSLTISSMEAEDAATYYCHQYHHSPYIYTFGGGTKLEIK
B6: KB001 mouse Fab VL S31T (Fab, V domains shown)
VH: EVQLKQSGPGLVAPSQSLSITCTVSGFSLSIYSVHWVRQPPGKGLEWLGMIWGGGSSDYNSALKSRLSISKDNSKSQVFLKMNSLQTDDTAMYYCARNGNFYAMDYWGQGTSVTVSS
VL: QIVLTQSPAIMSASLGERVTMTCTASSSVSTSFLHWYQQKPGSSPQLWIYSTSNLASGVPARFSGSGSGTSYSLTISSMEAEDAATYYCHQYHHSPYIYTFGGGTKLEIK
B7: KB001 mouse Fab VL T52A (Fab, V domains shown)
VH: EVQLKQSGPGLVAPSQSLSITCTVSGFSLSIYSVHWVRQPPGKGLEWLGMIWGGGSSDYNSALKSRLSISKDNSKSQVFLKMNSLQTDDTAMYYCARNGNFYAMDYWGQGTSVTVSS
VL: QIVLTQSPAIMSASLGERVTMTCTASSSVSSSFLHWYQQKPGSSPQLWIYSASNLASGVPARFSGSGSGTSYSLTISSMEAEDAATYYCHQYHHSPYIYTFGGGTKLEIK
B8: KB001 mouse Fab VL S53Q (Fab, V domains shown)
VH: EVQLKQSGPGLVAPSQSLSITCTVSGFSLSIYSVHWVRQPPGKGLEWLGMIWGGGSSDYNSALKSRLSISKDNSKSQVFLKMNSLQTDDTAMYYCARNGNFYAMDYWGQGTSVTVSS
VL: QIVLTQSPAIMSASLGERVTMTCTASSSVSSSFLHWYQQKPGSSPQLWIYSTQNLASGVPARFSGSGSGTSYSLTISSMEAEDAATYYCHQYHHSPYIYTFGGGTKLEIK

The test has as its target HRgpA-6H (Porphyromonas gingivalis) (UniProt P28784). Nature of the test: ELISA, FASEBA Fab on coated HRgpA-6H.
Chain of UniProt P28784 (P28784 228-991): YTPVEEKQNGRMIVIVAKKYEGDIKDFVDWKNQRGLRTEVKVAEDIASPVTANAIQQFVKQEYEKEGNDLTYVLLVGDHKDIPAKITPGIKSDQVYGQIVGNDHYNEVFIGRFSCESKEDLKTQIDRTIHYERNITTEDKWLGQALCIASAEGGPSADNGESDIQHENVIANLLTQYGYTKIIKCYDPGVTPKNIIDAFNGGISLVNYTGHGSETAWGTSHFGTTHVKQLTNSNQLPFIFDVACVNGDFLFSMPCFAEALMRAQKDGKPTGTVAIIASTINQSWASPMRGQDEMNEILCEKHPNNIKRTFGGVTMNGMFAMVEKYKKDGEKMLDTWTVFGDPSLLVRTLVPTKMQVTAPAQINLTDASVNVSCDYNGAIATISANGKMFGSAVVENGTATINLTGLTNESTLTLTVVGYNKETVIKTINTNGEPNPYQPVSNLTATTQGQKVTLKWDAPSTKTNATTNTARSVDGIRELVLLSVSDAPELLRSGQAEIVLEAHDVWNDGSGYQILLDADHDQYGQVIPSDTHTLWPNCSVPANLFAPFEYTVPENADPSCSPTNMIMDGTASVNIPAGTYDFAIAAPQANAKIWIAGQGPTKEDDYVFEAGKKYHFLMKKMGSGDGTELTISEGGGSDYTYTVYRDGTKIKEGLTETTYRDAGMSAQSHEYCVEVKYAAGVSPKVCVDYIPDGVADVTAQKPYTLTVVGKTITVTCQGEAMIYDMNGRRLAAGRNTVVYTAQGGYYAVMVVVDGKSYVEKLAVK
On to B1, for which the OD450nm is 0.854 and 0.688 and 0.693; the Ratio OD(Variant)/OD(WT) was 1.01 and 0.814 and 0.82.

With B2, the OD450nm is 0.827 and 0.777; the Ratio OD(Variant)/OD(WT) is 1.05 and 0.987.

Regarding B3, the OD450nm was 0.915 and 0.777 and 0.851; the Ratio OD(Variant)/OD(WT) was 1.05 and 0.888 and 0.973.

Turning to B4, the OD450nm was 0.838 and 0.707; the Ratio OD(Variant)/OD(WT) was 1.06 and 0.898.

Turning to B5, the OD450nm was found to be 0.833 and the Ratio OD(Variant)/OD(WT) came out at 1.06.

In the case of B6, the OD450nm is 0.859 and 0.74 and 0.782; the Ratio OD(Variant)/OD(WT) was 1.02 and 0.876 and 0.925.

Consider B7, for which the Ratio OD(Variant)/OD(WT) was 1.17 and 1.08 (2×) and 0.993.

As for B8, the OD450nm is 0.835 and 0.751 and 0.726; the Ratio OD(Variant)/OD(WT) was 1.06 and 0.954 and 0.922.
